Assay results taken from patent US20130345401.

Test system: T1, human fibrinogen produced in a silkworm (recombinant fibrinogen extracted from cocoons of β42-3×α/γ106-2×IM transgenic silkworms)
T1 sequence 1: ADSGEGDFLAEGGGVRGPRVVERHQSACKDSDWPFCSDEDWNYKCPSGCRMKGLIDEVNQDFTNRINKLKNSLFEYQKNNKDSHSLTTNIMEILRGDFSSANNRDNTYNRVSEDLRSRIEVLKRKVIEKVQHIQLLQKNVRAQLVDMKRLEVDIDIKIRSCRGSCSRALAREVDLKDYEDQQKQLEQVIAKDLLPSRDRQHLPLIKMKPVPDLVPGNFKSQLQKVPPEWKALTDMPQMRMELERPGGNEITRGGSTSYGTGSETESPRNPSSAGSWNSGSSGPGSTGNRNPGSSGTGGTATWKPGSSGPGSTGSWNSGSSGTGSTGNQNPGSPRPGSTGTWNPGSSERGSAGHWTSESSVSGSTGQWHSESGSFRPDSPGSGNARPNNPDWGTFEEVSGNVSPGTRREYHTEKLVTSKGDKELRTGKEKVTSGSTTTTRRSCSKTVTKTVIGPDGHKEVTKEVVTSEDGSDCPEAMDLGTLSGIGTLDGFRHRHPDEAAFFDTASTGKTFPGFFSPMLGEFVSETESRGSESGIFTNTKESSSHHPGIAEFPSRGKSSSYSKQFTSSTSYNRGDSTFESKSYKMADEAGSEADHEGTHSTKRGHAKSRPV
T1 sequence 2: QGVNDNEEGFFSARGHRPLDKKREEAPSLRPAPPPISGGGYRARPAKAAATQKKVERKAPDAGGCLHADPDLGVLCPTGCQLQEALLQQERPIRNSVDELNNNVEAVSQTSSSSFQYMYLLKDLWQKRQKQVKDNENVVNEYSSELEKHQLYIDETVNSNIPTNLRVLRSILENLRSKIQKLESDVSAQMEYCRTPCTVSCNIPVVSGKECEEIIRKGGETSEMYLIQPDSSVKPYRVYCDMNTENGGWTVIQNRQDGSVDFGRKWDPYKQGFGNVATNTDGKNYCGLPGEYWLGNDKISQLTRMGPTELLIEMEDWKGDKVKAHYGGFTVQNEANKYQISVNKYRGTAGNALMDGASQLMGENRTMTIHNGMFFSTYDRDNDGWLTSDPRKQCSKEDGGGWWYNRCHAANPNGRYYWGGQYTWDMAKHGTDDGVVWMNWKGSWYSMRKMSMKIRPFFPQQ
T1 sequence 3: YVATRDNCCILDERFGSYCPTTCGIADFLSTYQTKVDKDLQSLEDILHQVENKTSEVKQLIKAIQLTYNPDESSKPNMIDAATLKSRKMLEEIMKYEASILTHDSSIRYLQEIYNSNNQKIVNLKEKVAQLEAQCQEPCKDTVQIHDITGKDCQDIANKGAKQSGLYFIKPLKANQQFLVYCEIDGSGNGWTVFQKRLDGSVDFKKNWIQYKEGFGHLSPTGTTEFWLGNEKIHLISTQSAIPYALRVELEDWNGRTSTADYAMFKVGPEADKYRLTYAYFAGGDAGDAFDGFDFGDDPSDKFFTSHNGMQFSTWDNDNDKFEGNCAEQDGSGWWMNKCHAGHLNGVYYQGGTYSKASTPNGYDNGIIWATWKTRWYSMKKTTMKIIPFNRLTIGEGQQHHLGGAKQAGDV

Substance: thrombin (Calbiochem)
- coagulation (fibrin clot formation): viscosity of the liquid after incubation with 10 U/ml thrombin at 37° C. for 1 hour: viscosity of the liquid increased to an extent where, when the liquid was sucked into a pipette, the liquid hardly dropped from the tip of the pipette
